Measurements: the RNAGym collection of RNA variant scans (doi:10.1021/acssynbio.7b00057)

B1: Pistol ribozyme (parent)
chain: GGGUCGUUGUUCCAUAAUCGCGUGGAUAUGGCACGCAAGUUUCUACCGGGCACCGUAAAUGUCCGACUGGAGCCGUUCGGGCGGCUAUAAACAGACCUCAGGCCCGAAGCGUGGCGGCACCUGCCGCCGGUGGUAAAAAAGAUCGGAAGAGCACACGUCU

Variants of: B1
Experiment: aptazyme ON/OFF ratio, guanine; higher = stronger switching; co-transcriptional cleavage with and without guanine

| Variant | aptazyme ON/OFF ratio |
| --- | --- |
| U7A U8A U10C U11A C13U | 1.05 |
| U7A U8A G9U U11C C12U C13G | 1.02 |
| U7A U8A G9U U11C C12U C13U | 1.32 |
| U7A U8A G9U U11C C12U C13A | 1.18 |
| U7A U8A U10A U11A C12G C13A | 1.05 |
| U7A U8A U10A U11A C12G C13U | 1.13 |
| U7A U8A U10A U11A C12G C13G | 1.45 |
| U7A U8A U10A C12A C13A | 1.23 |
| U7A U8A U10A C12A C13U | 1.37 |
| U7A U8A U10A C12A C13G | 1.03 |
| U7A U8A G9U U11G C12A C13G | 1.27 |
| U7A U8A G9U U11G C12A C13U | 1.22 |
| U7A U8A G9U U11G C12A C13A | 1.29 |
| U7A U8A G9U U10G U11A C13A | 1.02 |
| U7A U8A G9U U10G U11A C13U | 1.1 |
| U7A U8A G9U U10G U11A C13G | 1.04 |
| U7A U8A U10C U11C | 1.04 |
| U7A U8A U10C U11A | 1.2 |
| U7A U8A U10C U11G | 1.2 |
| U7A U8A G9U U10G C12G C13U | 1.23 |
| U7A U8A G9U U10G C12G C13G | 1.08 |
| U7A U8A G9U U10G C12G C13A | 1.21 |
| U7A U8A G9U U11A C12A C13G | 1.12 |
| U7A U8A G9U U11A C12A C13U | 1.22 |

| Variant | aptazyme ON/OFF ratio |
| --- | --- |
| U7A U8A G9U U11A C12A C13A | 1.04 |
| U7A U8A G9U U10G U11G C13G | 1.3 |
| U7A U8A G9U U10G U11G C13A | 1.24 |
| U7A U8A G9U U10G U11G C13U | 1.17 |
| U7A U8A G9U U10G U11A C12U C13G | 1.15 |
| U7A U8A G9U U10G U11A C12U C13A | 1.14 |
| U7A U8A G9U U10G U11A C12U C13U | 1.13 |
| U7A U8A U10A U11G C12A | 1.09 |
| U7A U8A U10A U11G C12U | 1.17 |
| U7A U8A U10A U11G C12G | 0.984 |
| U7A U8A U10G U11C C13G | 1.11 |
| U7A U8A U10G U11C C13A | 1.17 |
| U7A U8A U10G U11C C13U | 1.04 |
| U7A U8A U10G C12A C13G | 1.06 |
| U7A U8A U10G C12A C13U | 1.19 |
| U7A U8A U10G C12A C13A | 1.21 |
| U7A U8A G9U U10G U11C C12A C13G | 1.15 |
| U7A U8A G9U U10G U11C C12A C13A | 1.29 |
| U7A U8A G9U U10G U11C C12A C13U | 1.21 |
| U7A U8A G9U U11A C13A | 1.19 |
| U7A U8A G9U U11A C13U | 1.26 |
| U7A U8A G9U U11A C13G | 1.06 |
| U7A U8A U10C U11G C13U | 1.17 |
| U7A U8A U10C U11G C13A | 1.13 |

| Variant | aptazyme ON/OFF ratio |
| --- | --- |
| U7A U8A U10C U11G C13G | 1.2 |
| U7A U8A U10C U11G C12U C13U | 1.3 |
| U7A U8A U10C U11G C12U C13G | 1.1 |
| U7A U8A U10C U11G C12U C13A | 1.23 |
| U7A U8A U10A C13A | 1.11 |
| U7A U8A U10A C13U | 1.06 |
| U7A U8A U10A C13G | 1.06 |
| U7A U8A G9U U10G C12A C13A | 1.38 |
| U7A U8A G9U U10G C12A C13G | 1.09 |
| U7A U8A G9U U10G C12A C13U | 1.19 |
| U7A U8A U11A C12A | 1.44 |
| U7A U8A U11A C12U | 1.31 |
| U7A U8A U11A C12G | 1.2 |
| U7A U8A U10G U11C C12G C13A | 1.23 |
| U7A U8A U10G U11C C12G C13U | 1.39 |
| U7A U8A U10G U11C C12G C13G | 1.11 |
| U7A U8A G9U U10G U11A | 1.03 |
| U7A U8A G9U U10G U11C | 1.05 |
| U7A U8A G9U U10G U11G | 1.09 |
| U7A U8A U10G U11G C12U C13G | 1.26 |
| U7A U8A U10G U11G C12U C13U | 1.27 |
| U7A U8A U10G U11G C12U C13A | 1.23 |
| U7A U8A U10G C13A | 1.31 |
| U7A U8A U10G C13U | 1.22 |

| Variant | aptazyme ON/OFF ratio |
| --- | --- |
| U7A U8A U10G C13G | 1.12 |
| U7A U8A G9U U11G C13G | 1.08 |
| U7A U8A G9U U11G C13U | 1.16 |
| U7A U8A G9U U11G C13A | 1.13 |
| U7A U8A U10C U11G C12A C13A | 1.12 |
| U7A U8A U10C U11G C12A C13U | 1.12 |
| U7A U8A U10C U11G C12A C13G | 1.16 |
| U7A U8A U10C C12U | 1.68 |
| U7A U8A U10C C12G | 1.16 |
| U7A U8A U10C C12A | 1.16 |
| U7A U8A U10G U11C C12A | 1.61 |
| U7A U8A U10G U11C C12G | 1.32 |
| U7A U8A U10G U11C C12U | 1.1 |
| U7A U8A U10G C12G | 1.43 |
| U7A U8A U10G C12A | 1.33 |
| U7A U8A U10G C12U | 1.35 |
| U7A U8A G9U U10G C13A | 1.24 |
| U7A U8A G9U U10G C13G | 1.21 |
| U7A U8A G9U U10G C13U | 1.36 |
| U7A U8A G9U U11A C12U C13G | 1.23 |
| U7A U8A G9U U11A C12U C13U | 1.28 |
| U7A U8A G9U U11A C12U C13A | 1.04 |
| U7A U8A G9U U11A | 0.956 |
| U7A U8A G9U U11C | 1.09 |

| Variant | aptazyme ON/OFF ratio |
| --- | --- |
| U7A U8A G9U U11G | 1.36 |
| U7A U8A U10A U11G C12A C13G | 1.07 |
| U7A U8A U10A U11G C12A C13U | 1.18 |
| U7A U8A U10A U11G C12A C13A | 1.19 |
| U7A U8A U10C C13U | 1.98 |
| U7A U8A U10C C13G | 1.09 |
| U7A U8A U10C C13A | 1.11 |
| U7A U8A U10G C12U C13U | 1.42 |
| U7A U8A U10G C12U C13A | 1.51 |
| U7A U8A U10G C12U C13G | 1.13 |
| U7A U8A G9U U11A C12U | 1.15 |
| U7A U8A G9U U11A C12A | 1.25 |
| U7A U8A G9U U11A C12G | 1.33 |
| U7A U8A U10A U11C C12G C13A | 1.06 |
| U7A U8A U10A U11C C12G C13U | 1.15 |
| U7A U8A U10A U11C C12G C13G | 1.24 |
| U7A U8A U11C | 1.38 |
| U7A U8A U11A | 1.22 |
| U7A U8A U10G U11A C12A C13U | 1.7 |
| U7A U8A U10G U11A C12A C13A | 1.64 |
| U7A U8A U10G U11A C12A C13G | 1.1 |
| U7A U8A U10C U11C C12A C13A | 1.06 |
| U7A U8A U10C U11C C12A C13G | 1.09 |
| U7A U8A U10C U11C C12A C13U | 1.12 |

| Variant | aptazyme ON/OFF ratio |
| --- | --- |
| U7A U8A U10A C12G | 1.26 |
| U7A U8A U10A C12A | 1.33 |
| U7A U8A U10A C12U | 1.11 |
| U7A U8A U11C C12G C13A | 1.25 |
| U7A U8A U11C C12G C13U | 1.46 |
| U7A U8A U11C C12G C13G | 1.24 |
| U7A U8A U11A C12G C13A | 1.17 |
| U7A U8A U11A C12G C13G | 1.13 |
| U7A U8A U11A C12G C13U | 1.16 |
| U7A U8A G9U U10G C12U | 1.33 |
| U7A U8A G9U U10G C12A | 1.22 |
| U7A U8A G9U U10G C12G | 1.16 |
| U7A U8A G9U U10G U11C C12G | 1.2 |
| U7A U8A G9U U10G U11C C12A | 1.33 |
| U7A U8A G9U U10G U11C C12U | 1.08 |
| U7A U8A G9U U10G U11A C12G C13G | 1.4 |
| U7A U8A G9U U10G U11A C12G C13A | 1.18 |
| U7A U8A G9U U10G U11A C12G C13U | 1.51 |
| U7A U8A U10C U11A C12U C13U | 1.11 |
| U7A U8A U10C U11A C12U C13A | 1.16 |
| U7A U8A U10C U11A C12U C13G | 1.1 |
| U7A U8A U10A U11G | 1.17 |
| U7A U8A U10A U11A | 1.18 |
| U7A U8A U10A U11C | 0.996 |

| Variant | aptazyme ON/OFF ratio |
| --- | --- |
| U7A U8A U11C C13A | 1.4 |
| U7A U8A U11C C13G | 1.09 |
| U7A U8A U10A U11G C12U C13U | 1.31 |
| U7A U8A U10A U11G C12U C13G | 1.15 |
| U7A U8A U10A U11G C12U C13A | 1.34 |
| U7A U8A G9U U10G U11C C13A | 1.06 |
| U7A U8A G9U U10G U11C C13G | 1.09 |
| U7A U8A G9U U10G U11C C13U | 1.02 |
| U7A U8A U10A U11C C13G | 1.06 |
| U7A U8A U10A U11C C13A | 1.04 |
| U7A U8A U10A U11C C13U | 0.989 |
| U7A U8A U10C U11C C12A | 1.17 |
| U7A U8A U10C U11C C12U | 1.07 |
| U7A U8A U10C U11C C12G | 1.2 |
| U7A U8A G9U U11G C12G | 1.19 |
| U7A U8A G9U U11G C12U | 1.31 |
| U7A U8A G9U U11G C12A | 1.1 |
| U7A U8A G9U U10G U11G C12G C13A | 1.21 |
| U7A U8A G9U U10G U11G C12G C13G | 1.16 |
| U7A U8A G9U U10G U11G C12G C13U | 1.22 |
| U7A U8A U10A U11C C12G | 1.1 |
| U7A U8A U10A U11C C12A | 1.04 |
| U7A U8A U10A U11C C12U | 1.03 |
